From patent publication US20230303690A1 (published 2023)

T1: LAG3 Protein, Human, Recombinant (His Tag) (Sino Biological Catalog No. 16498-H08H) (human, UniProt P18627 23-450)
T1 construct: Bought protein; also called hLAG3-His; LAG3-His; not shown: His tag
T1 sequence (looked up): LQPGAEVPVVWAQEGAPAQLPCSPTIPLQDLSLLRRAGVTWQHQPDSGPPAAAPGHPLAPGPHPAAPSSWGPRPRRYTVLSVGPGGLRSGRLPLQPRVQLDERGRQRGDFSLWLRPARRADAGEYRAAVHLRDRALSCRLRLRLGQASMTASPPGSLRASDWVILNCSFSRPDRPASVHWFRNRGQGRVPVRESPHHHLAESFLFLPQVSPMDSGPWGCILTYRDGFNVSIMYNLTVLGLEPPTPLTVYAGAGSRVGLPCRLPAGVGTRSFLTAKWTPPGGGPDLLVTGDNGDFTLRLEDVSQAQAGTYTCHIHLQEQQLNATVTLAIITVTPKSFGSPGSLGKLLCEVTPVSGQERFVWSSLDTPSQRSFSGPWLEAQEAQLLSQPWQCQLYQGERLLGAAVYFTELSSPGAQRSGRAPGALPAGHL

T2: human LAG3 expressed on cells (human, UniProt P18627 23-525)
T2 sequence (looked up): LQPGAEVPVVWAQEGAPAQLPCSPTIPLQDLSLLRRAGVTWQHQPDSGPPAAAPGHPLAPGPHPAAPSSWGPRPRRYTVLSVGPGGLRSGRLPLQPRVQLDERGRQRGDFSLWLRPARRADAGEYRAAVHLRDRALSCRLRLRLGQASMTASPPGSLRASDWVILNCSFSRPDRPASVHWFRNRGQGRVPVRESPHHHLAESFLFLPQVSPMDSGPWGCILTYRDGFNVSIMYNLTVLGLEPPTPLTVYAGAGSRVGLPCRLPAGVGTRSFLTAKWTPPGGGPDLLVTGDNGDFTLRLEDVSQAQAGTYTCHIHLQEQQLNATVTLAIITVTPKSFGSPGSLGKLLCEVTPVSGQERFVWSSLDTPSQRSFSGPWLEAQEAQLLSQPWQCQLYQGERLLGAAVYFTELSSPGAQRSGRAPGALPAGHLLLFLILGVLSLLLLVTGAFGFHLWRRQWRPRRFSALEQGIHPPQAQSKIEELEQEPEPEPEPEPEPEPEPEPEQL

B1: sdAb No. 27 (VHH)
VHH: QVQLVESGGGLVQPGGSLRLSCAASGFTLDYYAIGWFRQAPGKEREGVSCIRSSDGSTYYADSVKGRFTISSDNTKNTVYLQMNSLKPEDTAVYYCATDRYSDCRGPYENWGQGTQVTVSS
notes: Fc of the tested form not described; also called sdAb 27; not shown: Fc part implied by anti-human Fc capture and anti-human IgG Fc detection
B2: sdAb No. 25 (VHH)
VHH: QLQLVESGGGLVQAGGSLRLSCAASGSIESFSFMGWYRQAPGKQRELVAGFTGAASLSFSTYTDAVKGRFTISRDNAKNTVYLQMNSLKPEDTAVYFCNVDPWSQSWPGRYWGQGTQVTVSS
notes: Fc of the tested form not described; also called sdAb 25; sdAb #25; not shown: Fc part implied by anti-human Fc capture and anti-human IgG Fc detection
B3: sdAb No. 17 (VHH)
VHH: QLQLVESGGGLVQPGGSLRLSCAASGLTLDGYAIGWFRQAPGKEREGLACISGSDGSTHYLDSVKGRFTISRDNGKNTMALQMNSLQFGDTAIYYCAARRGSCSGSWTYWGQGTQVTVSS
notes: Fc of the tested form not described; also called sdAb 17; not shown: Fc part implied by anti-human Fc capture and anti-human IgG1 Fc detection

Columns and labels:
[1] = target: T1, LAG3 Protein, Human, Recombinant (His …); assay: SPR binning on LAG3-His; competitor 27
Method: (§1) The chip surface was regenerated after each cycle with 25 mM NaOH followed by HBS-EP wash provided in the kit.

[2] = target: T1, LAG3 Protein, Human, Recombinant (His …); assay: SPR (Biacore), sdAb captured by anti-human Fc, LAG3-His analyte
Method: The binding of the single domain antibodies to recombinant human LAG3 protein (rhLAG3) was examined by Biacore™ assay. […] The coating was carried out according to the manufacturer’s instructions accompanying the kit (Catalog No. BR-1008-39, GE). […] The chip surface was regenerated after each cycle with 25 mM NaOH followed by HBS-EP wash provided in the kit.

[3] = target: T2, human LAG3 expressed on cells; assay: cell-based or functional assay
[4] = target: T1, LAG3 Protein, Human, Recombinant (His …); assay: SPR binning on LAG3-His; competitor 17
Method: as §1

[5] = target: T1, LAG3 Protein, Human, Recombinant (His …); assay: SPR binning on LAG3-His; competitor 21
Method: as §1

[6] = target: T1, LAG3 Protein, Human, Recombinant (His …); assay: SPR binning on LAG3-His; competitor 25
Method: as §1

[7] = target: T1, LAG3 Protein, Human, Recombinant (His …); assay: SPR binning on LAG3-His; competitor 20
Method: as §1

[8] = target: T1, LAG3 Protein, Human, Recombinant (His …); assay: SPR binning on LAG3-His; competitor 1
Method: as §1

[9] = target: T2, human LAG3 expressed on cells; assay: cell-based or functional assay; remark: listed apart in the source
[10] = target: T1, LAG3 Protein, Human, Recombinant (His …); assay: SPR binning on LAG3-His; competitor 18
Method: as §1

[11] = target: T1, LAG3 Protein, Human, Recombinant (His …); assay: SPR binning on LAG3-His; competitor 24
Method: as §1

[12] = target: T1, LAG3 Protein, Human, Recombinant (His …); assay: SPR binning on LAG3-His; competitor BMS
Method: as §1

[13] = target: T1, LAG3 Protein, Human, Recombinant (His …); assay: SPR binning on LAG3-His; competitor 73
Method: as §1

[14] = target: T1, LAG3 Protein, Human, Recombinant (His …); assay: SPR binning on LAG3-His; competitor 37
Method: as §1

Row | Binder | RU [1] [RU] | koff [2] [s⁻¹] | kon [2] [M⁻¹ s⁻¹] | EC50 for IL-2 rescue, hLAG3 Jurkat T system [3] [nM] | Efficacy (IL-2 production, BMS = 100%) [3] [%] | RU [4] [RU] | RU [5] [RU] | RU [6] [RU] | RU [7] [RU] | RU [8] [RU] | IL-2, % of BMS, at 0.005080526 ug/mL [9] [%] | IL-2, % of BMS, at 0.015241579 ug/mL [9] [%] | IL-2, % of BMS, at 0.045724737 ug/mL [9] [%] | IL-2, % of BMS, at 0.137174211 ug/mL [9] [%] | IL-2, % of BMS, at 0.411522634 ug/mL [9] [%] | IL-2, % of BMS, at 1.234567901 ug/mL [9] [%] | IL-2, % of BMS, at 3.703703704 ug/mL [9] [%] | IL-2, % of BMS, at 11.11111111 ug/mL [9] [%] | IL-2, % of BMS, at 33.33333333 ug/mL [9] [%] | IL-2, % of BMS, at 100 ug/mL [9] [%] | further results
1 | B1 | -6.2 | 4.09e-07 | 1.17e+07 | 8.49 | 50.2 | -11.7 | -10.1 | 34 | -11.7 | -9.1 | 5.57 | 13.4 | 12.1 | 18 | 27.3 | 36.5 | 43.4 | 50 | 52.9 | 52.8 | RU [10]: -9.6 RU; RU [11]: -10.1 RU; RU [12]: 48.2 RU; RU [13]: -15.1 RU; RU [14]: -9.1 RU
2 | B2 | 50.9 | 0.000108 | 6.31e+06 | 8.12 | 43.4 | 41 | 49.3 | 7.2 | 44.6 | 44.7 | 3.24 | -0.59 | 8.03 | 2.39 | 9.2 | 25.1 | 30.6 | 34.1 | 39.8 | 53.7 | Kd [2]: 0.017 nM; RU [10]: 39 RU; RU [11]: 46.4 RU; RU [12]: 31.7 RU; RU [13]: 47.6 RU; RU [14]: 44.1 RU
3 | B3 | -7 | 0.0012 | 6.6e+06 | 7.72 | 46.5 | -2 | -12.5 | 17.9 | -14.6 | -13.6 | 5.97 | 9.56 | 9.97 | 18 | 22.3 | 26.5 | 31.4 | 38 | 38 | 42.2 | Kd [2]: 0.181 nM; RU [10]: -7.5 RU; RU [11]: -10.4 RU; RU [12]: 15.2 RU; RU [13]: -17 RU; RU [14]: -13.4 RU
